Assay results from patent publication US9097721B2, “Compositions comprising engineered phosphothreonine affinity reagents, methods of making, and methods of use” (The Board of Trustees of the University of Illinois, priority 2012, dated 2015).
“And” between values parts separate entries of the source, which are not always exact repeats. Identical values can stand only once. “Also recorded” adds a separate entry of the source.

Columns and labels:
Rad9-pT peptide [1] = target: T1, Rad9-pT peptide (Saccharomyces cerevisiae, UniProt P14737); assay: Phage ELISA of phage-displayed FHA1 domains; format: binding, yeast; details: M13 protein III fusion, DsbA signal sequence
T1 construct: host or cells: chemical synthesis
Procedure: To amplify the phage particles displaying the recombinant FHA1 variants, TG1 bacterial cells (5 mL; Stratagene) harboring the phagemid DNA were infected at mid-log (OD600nm=0.5-0.6) with M13K07 helper phage (New England Biolabs) at a multiplicity of infection (MOI) of 20 for 1 h at 37° C. at 150 rpm. Infected cells were centrifuged, and the pellet was resuspended in fresh Luria Bertani medium (LB: 10 g Tryptone, 5 g Yeast extract, and 10 g NaCl per liter) supplemented with 50 μg/mL carbenicillin and 50 μg/ml kanamycin, and phage were amplified overnight at 30° C. at 250 rpm. All of the phage ELISA steps were performed at room temperature. Biotinylated peptides (100 μL, 5 μg/mL) were immobilized on Nunc MaxiSorp flat-bottom 96 well plates (Thermo Fisher Scientific) via NeutrAvidin™ Biotin binding protein (100 μL, 10 μg/mL; Thermo Fisher Scientific) and blocked with 2% skim milk in 1×PBS (200 μL per well). After washing with Phosphate Buffered Saline (PBS: 0.14 M Sodium Chloride, 0.003 M Potassium Chloride, 0.002 M Potassium Phosphate, and 0.01 M Sodium Phosphate), the wells were incubated with the phage supernatant (100 μL of phage diluted 1:2 with PBS containing 0.1% Tween 20 (PBST)) for 1 h and washed three times with PBST. The binding phage were detected using anti-M13 antibody conjugated to horse radish peroxidase (HRP) (GE Healthcare) diluted 1:5000 with PBST. After washing away the unbound antibody, the chromogenic substrate for HRP; 2,2′-Azinobis (3-ethylbenzothiazoline-6-Sulfonic Acid) diammonium salt (Thermo Fisher Scientific), supplemented with hydrogen peroxide was added (100 μL per well), and the absorbance of the green colored complex was measured at 405 nm on POLARstar OPTIMA microtiter plate reader (BMG Labtech).

Rad9-pT peptide [2] = target: T1, Rad9-pT peptide; assay: ELISA of GST fusions of FHA1 domains; format: binding, yeast; details: expressed in bacterial cytoplasm as GST fusion
Procedure: For production of FHA1-GST fusion protein, BL21 DE3 cells (10 mL; Stratagene) harboring the expression vector was grown overnight at 30° C. using the Overnight Express™ Autoinduction System 1 (Novagen). The next day, cells were lysed using BugBuster® 10× Protein Extraction Reagent (Novagen) following the manufacturer's instructions. Cell lysate (100 μL diluted 1:5 with PBST) was incubated with the biotinylated peptides as described above and detected using anti-GST antibody conjugated to HRP (diluted 1:10,000 with PBST; GE Healthcare).

[3] = Fluorescence-based thermal shift (FTS) assay, melting temperature; format: physicochemical; details: for thermal stability compared with the starting D2 domain: isolated after selection with library heated to 50° C.; for Tm (° C.): mid-point of melting curve
Procedure: (§1) The FTS assay was performed on a MxPro-Mx3005P instrument (Stratagene) following the protocol described by Giuliani et al (Giuliani et al. (2008) Biochemistry 47, 13974-84). It is a real-time assay using the SYBR® Green experiment setting with dissociation curve. The default FRROX filter set was used with an excitation wavelength of 492 nm and emission wavelength of 610 nm. FHA1 domains diluted with PBS to 2× final concentration (i.e. 2 μM and 8 μM) were mixed with 10×SYPRO® Orange protein gel stain (Invitrogen; 5000× concentration in DMSO) to give a final dye concentration of 10×. Then, to the protein wells only, 10 μL of the dye+protein mixture was added along with 10 μL of 1×PBS buffer. In other wells, 10 μL of either the pT peptide or its non-phosphorylated form (diluted to 2× final concentration with PBS, i.e. 100 μM and 500 μM) was added to 10 μL of dye+protein mixture. The final reaction volume was 20 μL with final concentrations of 1 μM or 4 μM of FHA1 domains, 50 μM or 250 μM of pT and non-phosphorylated peptides and 5× final concentration of the SYPRO® Orange. The assay was performed in duplicate in 96 well white PCR plates (BIO-Rad) covered with optically clear Microseal® ‘B’ Film (Bio-Rad) and heated from 25° C. to 95° C. and the melting curve was obtained with fluorescence (R) values plotted on the Y-axis and increasing temperature (° C.) on the X-axis. The mid-point of the curve gives the melting temperature (Tm), which shifts to a higher temperature in the presence of the pT peptide.
To evaluate the thermal stability of the D2 variant, phage particles displaying the D2 variant were heated at various temperatures (30° C., 37° C., 50° C., 60° C., 70° C., 80° C., and 95° C.) prior to incubation with the cognate pT peptide (Rad9-pT) and the non-phosphorylated form of the same peptide (Rad9-T). […] (FIG. 8). The D2 variant (purified six-his tagged protein) was mixed with SYPRO orange dye with or without the Rad9-pT-containing peptide and heated from 25° C. to 95° C. in a real-time PCR experiment known as the Fluorescence-based thermal shift (FTS) assay^36. In this assay, initially, the fluorescence of SYPRO orange dye is quenched in the aqueous environment of a folded protein, but as the protein starts to unfold upon heating, the dye interacts with the hydrophobic core of the protein and its fluorescence increases. Therefore, an increase in fluorescence of the dye is directly proportional to protein unfolding, until a temperature (referred to as Tm here) is reached at which the dye fluorescence decreases due to aggregation and precipitation of the protein. The melting temperature (Tm) of the D2 variant was determined by fluorescence-based thermal shift (FTS) assay to be approximately 5° C. lower than the Tm of the WT FHA1 domain. To improve the thermal stability of the D2 variant, affinity selection was carried out by heating the phage library displaying D2 variants at 50° C. prior to incubation with the pT peptide ligand to favor the isolation of variants that remained folded and functional above 50° C.
(§2) The Tm values of FHA1 variants were determined by FTS assay (Giuliani et al. (2008) Biochemistry 47, 13974-84). A representative Tm curve for the G2 variant at 1 μM concentration is shown (solid squares), alone and in the presence of the pT peptide (FIG. 11). […] The Tm values of the thermally stable variants (along with WT and D2 variant) at 1 μM and 4 μM concentration, along with the Tm shift in the presence of two different concentrations (50 μM and 250 μM) of the pT peptide, are listed in Table S3.
The Tm (temperature at which 50% of the protein is unfolded) of the protein domain variants was determined by a fluorescence-based thermal shift assay (Giuliani et al. (2008) Biochemistry 47, 13974-84). The proteins were mixed with SYPRO orange dye, and heated from 25° C. to 95° C. on a real-time thermocycler. […]

[4] = target: T2, cognate pT peptide (Rad9-pT) (Saccharomyces cerevisiae, UniProt P14737); assay: FTS assay, Tm shift in the presence of the cognate pT peptide; format: binding, yeast
T2 construct: host or cells: chemical synthesis
Procedure: as §1, §2

[5] = target: T3, pT peptide (Rad 9-pT: SLEVpTEADATFYAKK) (Saccharomyces cerevisiae, UniProt P14737); assay: Isothermal titration calorimetry (ITC); format: binding, yeast; details: in solution by ITC; FHA1 domain 35 μM in cell
T3 construct: host or cells: chemical synthesis
Procedure: A fixed amount (10 μL) of the pT peptide (Rad 9-pT: SLEVpTEADATFYAKK (SEQ ID NO:9); 500 μM) was injected from the syringe into the sample cell containing the FHA1 domain (35 μM). […] Each measurement was repeated three times.
The affinity of the G2 variant and the WT FHA1 domain to the pT peptide (SLEVpTEADATFYAKK) (SEQ ID NO:9) was determined by ITC (FIG. 12). The sample cell contained the purified FHA1 domains (35 μM) and the injection syringe was filled with the pT peptide (350 μM). […] The FHA1 domains bound to the pT peptide with a stoichiometry of 1:1, and the ITC graph was fitted by the single site binding model.

[6] = test system: non-phosphorylated form of the same peptide; assay: FTS assay, Tm shift in the presence of the non-phosphorylated peptide; format: binding, yeast
Procedure: as §1, with “The final reaction volume was 20 μL with final concentrations of 1 μM or 4 μM of FHA1 domains, 50 μM or 250 μM of pT and non-phosphorylated peptides and 5× final concentration of the SYPRO® Orange.” left out, “The mid-point of the curve gives the melting temperature (Tm), which shifts to a higher temperature in the presence of the pT peptide.” left out
The Tm values of FHA1 variants were determined by FTS assay (Giuliani et al. (2008) Biochemistry 47, 13974-84). […]

[7] = 250 μM pT peptide, protein 1 μM
[8] = 250 μM pT peptide, protein 4 μM

Molecule | binding to Rad9-pT peptide when phage-displayed (Rad9-pT peptide [1]) | binding of GST fusion to Rad9-pT peptide (Rad9-pT peptide [2]) | thermal stability compared with the starting D2 domain [3] | Tm (° C.) ([3]; protein concentration 1 μM) [°C] | Tm (° C.) ([3]; protein concentration 4 μM) [°C] | Tm shift (° C.) in the presence of pT peptide ([4]; 50 μM pT peptide, protein 1 μM) [°C] | Tm shift (° C.) in the presence of pT peptide ([4]; 50 μM pT peptide, protein 4 μM) [°C] | Tm shift (° C.) in the presence of pT peptide [4, 7] [°C] | Tm shift (° C.) in the presence of pT peptide [4, 8] [°C] | Kd [5] | shift in the Tm [6]
3C-3S: FHA1 domain variant with three cysteines mutated to serine (C34S, C38S, C154S) (protein, left off: a dimerising Fc or GST; large carriers; small tags and cut ends) MENITQPTQQSTQATQRFLIEKFSQEQIGENIVSRVISTTGQIPIRDLSADISQVLKEKRSIKKVWTFGRNPACDYHLGNISRLSNKHFQILLGEDGNLLLNDISTNGTWLNGQKVEKNSNQLLSQGDEITVGVGVESDILSLVIFINDKFKQSLEQNKVDRIRSNLKNT | did not bind; also recorded: remained non-functional | bound specifically; also recorded: showed specific binding |  |  |  |  |  |  |  |  | 
4C-4S: FHA1 variant with all four cysteines mutated to serines (protein, left off: a dimerising Fc or GST; large carriers; small tags and cut ends, FHA1 variant with all four cysteines mutated to serines) MENITQPTQQSTQATQRFLIEKFSQEQIGENIVSRVISTTGQIPIRDLSADISQVLKEKRSIKKVWTFGRNPASDYHLGNISRLSNKHFQILLGEDGNLLLNDISTNGTWLNGQKVEKNSNQLLSQGDEITVGVGVESDILSLVIFINDKFKQSLEQNKVDRIRSNLKNT | did not bind; also recorded: remained non-functional | bound specifically; also recorded: showed specific binding |  |  |  |  |  |  |  |  | 
G2: thermally stable FHA1 variant of D2, mutations T15A, L48F, N121Y (protein) MENITQPTQQSTQAAQRFLIEKFSQEQIGENIVFRVISTTGQIPIRDFSADISQVLKEKRSIKKVWTFGRNPACDYHLGNISRLSNKHFQILLGEDGNLLLNDISTNGTWLNGQKVEKNSYQLLSQGDEITVGVGVESDILSLVIFINDKFKQSLEQNKVDRIRSNLKNTHHHHHH |  |  | more thermally stable | 73.75 | 74.9 | 1.2 | 0.5 | 2.75 | 2.5 | ~890 nM and 890 nM | No shift
A12: thermally stable FHA1 variant of D2, mutations C74S, G94D, E129V, N158I (protein) MENITQPTQQSTQATQRFLIEKFSQEQIGENIVFRVISTTGQIPIRDLSADISQVLKEKRSIKKVWTFGRNPASDYHLGNISRLSNKHFQILLDEDGNLLLNDISTNGTWLNGQKVEKNSNQLLSQGDVITVGVGVESDILSLVIFINDKFKQSLEQIKVDRIRSNLKNTHHHHHH |  |  | more thermally stable | 66 | 64 | 1.25 | 1 | 2 | 2.4 |  | 
